Experiment: soluble on expression in E. coli; label from the status in PepcDB or PDB records

| Sequence | soluble on expression in E. coli |
| --- | --- |
| MSLVLNDLLICCRQLEHDRATERKKEVEKFKRLIRDPETIKHLDRHSDSKQGKYLNWDAVFRFLQKYIQKETECLRIAKPNVSASTQASRQKKMQEISSLVKYFIKCANRSK | not soluble |
| MAYAYLFKYIIIGDTGVGKSCLLLQFTDKRFQPVHDLTIGVEFGARMITIDGKQIKLQIWDTAGQESFRSITRSYYRGAAGALLVYDITRRDTFNHLTTWLEDARQHSNSNMVIMLIGNKSDLESRREVKKEEGEAFAREHGLIFMETSAKTASNVEEAFINTAKEIYEKIQEGVFDINNEANGIKIGPQHAATNASHGSNQGGQQAGGGCC | soluble |
| MVNKRTVTELSLFAGLIVSMHVAYYTIQNNPSLVAPHQRQELFYVRWLKEKIPALRPYGVTDDKTPKADQ | not soluble |
| MKLWAIYFEPEDWVGFRETRRFSFSDRVESVFPSSFPFYGAVRTALLMKNQKFDPGDVERAGDVRMFGPFVFENTPEGRKHYFPLPRNIYKTDSGYRVTPIVEIDGVYLPWKPEYKMDSKESTSGGLIELSDLELLRSNTQGVCKFDLVSAEKIFKKETHIGVAFEENRKKVKERMIYSISYYRFYDGGFFMFTDDERTVELVSKLDGVFLGMKSKWSAVEVEELNTTAFDPPDYKNVAVALITPAVFDGGGMPKDKTILGKRVLTTAGIRKQVVSGWDLRENKPKKIYHAVSPGAVYYLEGKVNGHVLNESKFTDFGFGRCIFMKYEKL | soluble |
| MILSMTGFGKHTIQFADKKITATIKSLNSKQFDLSTKISSRYRDRELPLRALVSADIGRGKVDFSLFLEESGSTDVVSQIFDTEKMSSYFFQLKEFGEKMGVEVPAGGWFEQLLRIPGVIQIDEDKEEEIPEDEWAVVIETCRRALDQLIGFREQEGAMLEQVFTEKISNISSLLLQIEQYEPDRIQRIKERIEENLTKISEKDYDKNRFEQEMIYYIEKLDVNEEKHRLRNHLSYFLQTMQGEPGQGKKLSFIAQEIGREINTLGSKSNHVEMQQIVVQMKDELEQIKEQVLNVL | not soluble |
| MSLNNIAPQSPVMRRLTLQDNPAIARVIRQVSAEYGLTADKGYTVADPNLDELYQVYSQPGHAYWVVEYEGEVVGGGGIAPLTGSESDICELQKMYFLPAIRGKGLAKKLALMAMEQAREMGFKRCYLETTAFLKEAIALYEHLGFEHIDYALGCTGHVDCEVRMLRELEGHHHHHH | soluble |
| MGSSHHHHHHGGTGENLYFQGGSGASTANASVDGSCPAMRDAADEALWAKLDEVQKLLANRSDAKELFTKYTVLRSVVGEVKPVFADSVRTRVKVFCEEPSFAAPEECDDFEPVSLHVVAYLNYKLFMEEMKELMVQARLLKSIGMEGSGLRFQRREQNIVAPGNEPRTGSSSKPSAQVSMHKPSYRPATLIPVGTLRLRRVSKASGAGKLTEVVAKIERVCVVKSARCFDVGRTLMRAAEKIARDAFHVRWALTYAQLSSKDFYTKAGYTPKDGRACMDLHMPHVVMVKCLVDASM | not soluble |
| MGSDKIHHHHHHMEKDIFVELNFLIMIIDDALPKFDLPVDFVTDDSITGDILNQYGRFPCHIKAGVFVLCTRGTVRATINLSEYTITHNDFVTVLPGSFIQIHEVSSDTRVCFAGFSSEFISRVSYVETYLDFLPMILDNPIMALQEEVAQLYRNAFSLLIRAYSLPNTLDNKEILMSIFTIFFQGVGELYKRCKPTTNEPIKREHELYRQFIQLLMTHYTQEHEVSFYAKKCGVTPAHFSGAIRKASGHSPLAIITGIIIMNAKAQLKSTRLPVKEIAFSLGFNNLSFFNKYFRKHVKMTPQEYREC | not soluble |
| MSLCEKEINNNNNNNELTEKSKEEIEKDEIEYLEYLKYRKEIIDSHCHIHEDVEHLQESCDLPFKKILLMGTTVEDWDKINQLADKINDDNKIIRCFGIHPWFVYNYLPPTELIGKIKEGDGSNDSIIISIDETWRIKMKELLLKYPNSIVGEIGIDKVTKVRLNGFNKNDQESQMRVFRDQIEIANELDRLVSLHCVQLQGQLLTFFQSLDIDKFPPAIALHTFGGKPATVDQFCKMASGKGDKFYFGLSFINLTFSKVDKLIQAIPDDRLLLESDQNSPTQVDQSLFKLIQKISISKNWTIQKTIEQTTLNTLNFLSKQIKKEGHHHHHH | soluble |
| MGSDKIHHHHHHMIKNAVKKIIDMEWFARMMEVLDHRSDNRMTELGMLSQAFEFIKINEVCGDYLEFGLWRGKTFGYAHRMKHRYRRQDMKLWGFDSFQGLPDTGAHPDNIWYKGQFACSRPEFESILKSRGIRSCEYELVEGFYRESLNDATRRRLAGRKAAIVYIDCDLYDSTVEVLDFIQPYLVNGSIVCFDDFYNYKADPEQGEQKALSDFLRKESGICFIPYMAYAPLGKSFICRRT | not soluble |
| MEEKLVTLAILTYTKAQILKNVLENEGIETYIHNVNQIQPVVSSGVRLRIKESDLPRALKITESSAWLAESIVGEKTPKVEHRTKKVLIPVDFSNYSMKACEFGFNFAKSFDAEVILLHVYFTPIYASSLPYGDVFNYQISDEETVKNVLHKVHDDLNTLSEKIKQKVASGEFPDVKYTCVLREGIPEEEILRYNKEHRPRIIIMGTRGKNQKDIDLIGSVTAEIIERSHTTVLAIPENTPFNRFNEVKRIAFMTNFDQRDLIAFDSFINGLSPFHFSVSLIHLSDVKDTWNEIKLAGIKDYFQKQYPDLEIHYDVVMSNDFLNSLDNYIKTNQIDIITLTSYKRNIFSRLFNPGIARKMIFHSDTPLLVING | not soluble |
| MNANCSSTAAVICEKKLHRPYSKHCPKHWVYNKETQACYRTISKTNMTILEADNKCFDYGFEHRQDAMLTSIESESENQFVMNLAKEKDANFEFIYLGGYGRSRNGNKWHWMDGSEFNYMNWDRGMPFGRRALAVLVMNKRGKWINHYADKILSQYNAVAVCKFKS | not soluble |
| MAKDIKFSEEARRSMLRGVDTLANAVKVTLGPKGRNVVLEKKFGSPLITNDGVTIAKEIELEDAFENMGAKLVAEVASKTNDVAGDGTTTATVLAQAMIREGLKNVTAGANPMGLRKGIEKAVVAAVEELKTISKPIEGKSSIAQVAAISAADEEVGQLIAEAMERVGNDGVITLEESKGFTTELDVVEGMQFDRGYASPYMITDSDKMEAVLDNPYILITDKKISNIQEILPVLEQVVQQGKPLLIIAEDVEGEALATLVVNKLRGTFNVVAVKAPGFGDRRKAMLEDIAILTGGEVITEELGRDLKSATVESLGRAGKVVVTKENTTVVEGVGSTEQIEARIGQIRAQLEETTSEFDREKLQERLAKLVGGVAVIKVGAATETELKERKLRIEDALNSTRAAVEEGIVAGGGTSLMNVYTKVASIVAEGDEATGINIVLRALEEPVRQIAINAGLEGSVVVERLKGEKVGVGFNAATGEWVNMLETGIVDPAKVTRSALQNAASVAAMFLTTEAVVADKPEPNAPAMPDMGGMGMGGMGGMM | not soluble |
| MAVELPKAAIERIFRQGIGERRLSQDAKDTIYDFVPTMAEYVANAAKSVLDASGKKTLMEEHLKALADVLMVEGVEDYDGELFGRATVRRILKRAGIERASSDAVDLYNKLICRATEELGEKAAEYADEDGRKTVQGEDVEKAITYSMPKGGEL | soluble |
| MGSDKIHHHHHHMSKKIIDEVIDILEDKKYTYTMIEYPEHNRKSVDIVLNSKEPTLIRVSEDKITKEEISDLKKIAVSTLTASLVVTNEEEEDIVSVKADNVFAISPEGFKKVINGEKIFLYRTRGGIFIKIRNYILKHKREEMGYSIGDVAKFLGVSRKAIYDYEKGDSDVSLEVAEKLIDLFGDDIIGDVIWDSIKSKKEILEEGVAEFSPENFKAKLIYKLKESGLNALSLKLTAADLIVKDSDNNRYLVTIENKDYNKSMKKFYEAKKLASYTKSELVIIIRTSKMLKECEDLGYKTYEENDIHSLIDEIKGSNGRQG | not soluble |
| MHKVLVPFDGSEHAMRALGYVIELSGDLNKPLEVHVLNVQASPIDYSLYLAPDMIDGVKAGLKNEGKRVLDDAIALLAAAGVPFQAHVDLGNVAEQVEAEVQRLGCDAVVMGTRGLGNFGGLLLGSVATRVIHEVSVPVTLIK | not soluble |

Source: the DeepSol protein solubility set
